Results on 8 molecules are retold here after patent US20260001961A1 (ALLIGATOR BIOSCIENCE, published 2026).

Changes are numbered by the printed parent chain. Names may count otherwise. Read-outs that look alike come from different tables or passages of the source.

One assay concerns the target T1, EpCAM (UniProt P16422 24-265).
T1 construct: also called biotinylated EpCAM
T1 sequence (looked up): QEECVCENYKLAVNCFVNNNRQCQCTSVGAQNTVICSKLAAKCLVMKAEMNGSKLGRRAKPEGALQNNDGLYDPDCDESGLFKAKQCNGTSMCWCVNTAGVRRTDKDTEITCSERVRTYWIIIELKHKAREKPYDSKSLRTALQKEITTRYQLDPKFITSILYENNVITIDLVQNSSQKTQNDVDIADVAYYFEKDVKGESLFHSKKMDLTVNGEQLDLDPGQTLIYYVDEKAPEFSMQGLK
Put plainly: Octet BLI; biotinylated EpCAM on streptavidin sensor.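 Also: octet RED96 kinetics: 300 s association, then 300 s dissociation in 1x Kinetic buffer, buffer-blank referenced, Savitzky-Golay smoothed, fitted to a 1:1 Langmuir binding model.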 A general note: BLI is a label-free optical method that tracks binding on a fibre tip over time.

Assay [1] has as its target T2, CD40 (UniProt P25942 21-193).
T2 construct: also called biotinylated CD40; CD40 antigen
As to the kind of experiment: dual ELISA: CD40 coated, bsAb titrated, biotinylated EpCAM + streptavidin-HRP; signal needs both targets. A general note: ELISA stands for enzyme-linked immunosorbent assay.
Procedure: (§1) Dual ELISA Plates were coated with 0.5 μg/mL CD40 in PBS over night at 4° C. After washing in PBS/0.05% Tween 20 (PBST), the plates were blocked with PBS/2% BSA for at least 30 minutes at room temperature before being washed again. Samples serially diluted in PBS/0.5% BSA were then added and allowed to bind for at least 1 hour at room temperature. […] Dual complexed bsAb with CD40 and EpCAM were detected with HRP-labelled streptavidin. SuperSignal Pico Luminescent was used as substrate and luminescence signals were measured using Fluostar Optima.

Assay [2] has as its target T2, CD40. Put plainly: Octet BLI; biotinylated CD40 on streptavidin sensor.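 Also: octet RED96 biolayer interferometry, 300 s association then 300 s dissociation in kinetic buffer, buffer-blank referenced, fitted with a 1:1 Langmuir binding model.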
Procedure: Kinetic measurements were performed using the Octet RED96 platform (ForteBIo). […] Association was followed for 300 seconds followed by dissociation in 1x Kinetic buffer for 300 seconds. Sensor tips were regenerated using 10 mM glycine, pH 1.7. Data generated were referenced by subtracting a parallel buffer blank, the baseline was aligned with the γ-axis, inter-step correlation by alignment against dissociation was performed and the data were smoothed by a Savitzky-Golay filter in the data analysis software (v.9.0.0.14). The processed data were fitted using a 1:1 Langmuir binding model with X2 as a measurement of fitting accuracy.
Binding affinities of all the variants were determined using Octet (Pall ForteBio).
Assay [3] deals with T2, CD40. As to the kind of experiment: dual ELISA: CD40 coated, bsAb titrated, biotinylated EpCAM + streptavidin-HRP; signal needs both targets. The source holds these as a separate data set.
Procedure: as §1
Assay [4] has as its target T3, 5T4 expressed on CHO cells (UniProt Q13641 32-420, limits assumed).
T3 construct: whole, on cells; also called CHO-5T4; 5T4 expressing CHO cells
T3 sequence (looked up): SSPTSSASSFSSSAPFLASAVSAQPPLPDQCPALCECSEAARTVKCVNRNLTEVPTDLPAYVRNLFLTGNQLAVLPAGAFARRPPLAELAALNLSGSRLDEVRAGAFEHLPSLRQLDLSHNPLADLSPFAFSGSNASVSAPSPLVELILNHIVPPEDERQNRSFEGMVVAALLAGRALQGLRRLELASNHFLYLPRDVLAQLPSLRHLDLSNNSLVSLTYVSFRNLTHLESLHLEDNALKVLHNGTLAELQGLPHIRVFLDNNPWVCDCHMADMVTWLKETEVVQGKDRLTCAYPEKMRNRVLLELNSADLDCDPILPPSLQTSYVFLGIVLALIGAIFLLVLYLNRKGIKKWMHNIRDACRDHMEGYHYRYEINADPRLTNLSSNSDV
Put plainly: flow cytometry on CHO cells expressing 5T4, anti-human IgG Fcg-PE; CHOwt cells as control. On the technique in general: In flow cytometry, cells or beads pass a laser one at a time.
Procedure: (§2) Binding to respective targets expressed on cells were evaluated using flow cytometry. I brief, CHO cells modified to express 5T4, B16 cells modified to express CD40 as well as the wildtype CHO and B16 cell lines were incubated with titrated concentrations of RUBY™ bsAbs. Binding of the antibodies was detected using fluorochrome-conjugated anti-human IgG and analyzed using flow cytometry.

Assay [5] addresses T4, CD40 expressed on cells (UniProt P25942 21-277).
T4 construct: whole, on cells; also called B16-CD40; CD40 expressing B16 cells
Put plainly: flow cytometry on B16 cells expressing CD40, anti-human IgG Fcg-PE; B16wt cells as control.
Procedure: as §2

Assay [6] concerns the target T4, CD40 expressed on cells. The assay is described as above. The source holds these as a separate data set.
Procedure: as §2
Assay [7] concerns the target T2, CD40. As to the kind of experiment: dual target ELISA (simultaneous 5T4 and CD40).
Procedure: Antigen binding was evaluated by dual target ELISA. In brief, relevant antigens were coated at 0.5 μg/ml in PBS in ELISA plates over night at 4° C. After washing in PBS/0.05% Tween 20 (PBST), the plates were blocked with PBST/2% BSA for at least 30 minutes at room temperature before being washed again. Samples serially diluted in PBST/0.5% BSA were then added and allowed to bind for at least 1 hour at room temperature. […] Dual complexed bsAb were detected with HRP-labelled streptavidin. SuperSignal Pico Luminescent was used as substrate and luminescence signals were measured using Fluostar Optima. Binding was compared between parental and mutated RUBY pairs.
The next assay addresses T5, 5T4 (UniProt Q13641 32-355).
T5 construct: also called 5T4 antigen (dual target ELISA)
T5 sequence (looked up): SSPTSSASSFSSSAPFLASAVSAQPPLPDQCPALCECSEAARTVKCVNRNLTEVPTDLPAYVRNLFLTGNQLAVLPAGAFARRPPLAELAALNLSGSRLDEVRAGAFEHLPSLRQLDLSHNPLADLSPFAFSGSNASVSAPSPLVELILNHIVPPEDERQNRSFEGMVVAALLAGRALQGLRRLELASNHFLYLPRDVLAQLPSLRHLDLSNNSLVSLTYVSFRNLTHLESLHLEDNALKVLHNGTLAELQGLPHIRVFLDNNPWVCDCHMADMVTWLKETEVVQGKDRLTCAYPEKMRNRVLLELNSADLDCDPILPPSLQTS
Put plainly: dual target ELISA (simultaneous 5T4 and CD40).

In assay [8] the target is T3, 5T4 expressed on CHO cells. Put plainly: flow cytometry on CHO cells expressing 5T4, anti-human IgG Fcg-PE; CHOwt cells as control. This is another data set of the same source.
Procedure: as §2
Assay [9] concerns the target T4, CD40 expressed on cells. Put plainly: flow cytometry on B16 cells expressing CD40, anti-human IgG Fcg-PE; B16wt cells as control. This is another data set of the same source.
Procedure: as §2

T4 sequence (P25942 21-277 limits assumed): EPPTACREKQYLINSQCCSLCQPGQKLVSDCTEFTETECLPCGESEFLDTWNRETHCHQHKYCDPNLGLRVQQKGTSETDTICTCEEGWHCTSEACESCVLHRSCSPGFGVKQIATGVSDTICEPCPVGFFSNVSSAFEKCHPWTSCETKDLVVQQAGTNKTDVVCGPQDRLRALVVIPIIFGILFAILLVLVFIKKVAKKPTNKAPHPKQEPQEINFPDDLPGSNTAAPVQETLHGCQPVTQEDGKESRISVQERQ
T2 sequence (P25942 21-193 limits assumed): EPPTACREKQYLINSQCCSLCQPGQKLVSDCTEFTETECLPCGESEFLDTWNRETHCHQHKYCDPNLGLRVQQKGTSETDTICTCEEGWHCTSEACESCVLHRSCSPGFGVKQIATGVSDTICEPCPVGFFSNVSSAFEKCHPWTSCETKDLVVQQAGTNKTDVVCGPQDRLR

B1: AM_4115-4131 (bispecific antibody)
heavy 1: not shown
light: DIQMTQSPSSLSASVGDRVTITCRASQSISSYLNWYQEKPGKAPKLLIYAASSLQSGVPSRFSGSGSGTDFTLTISSLQPEDFATYYCQQYGRNPPTFGQGTKLEIKRTVAAPSVFIFPPSDEQLKSGTASVVCYLNNFYPREAKVQWKVDNALQSGNSQESVTEQDSKDSTYSLWSTLTLSKADYEKHKVYACEVTHQGLSSPVTKSFNRGEC
heavy 2: EVQLLEQSGAELVRPGTSVKISCKASGYAFTNYWLGWVKERPGHGLEWIGDIFPGSGNIHYNEKFKGKATLTADKSSSTAYMQLSSLTFEDSAVYFCARLRNWDEPMDYWGQGTTVTVSSASTKGPSVFPLAPSSKSTSGGTAALGCLVKDYFPEPVTVSWNSGALTSGVHTFPAVLQSSGLWSLSSVVEVPSSSLGTQTYICNVNHKPSNTKVDKKVEPKSC
notes: AC_05293 backbone; also called double mutant I126S + Y180W; copies: 2 + 2 + 2
With B1, in the assay with EpCAM, the Kd (commonly the free concentration of one partner at which half of the binding sites on the other are occupied at equilibrium, for simple one-to-one binding) was 7.2 nM; the koff (commonly a measure of how fast the partners let go of each other) is 0.0013 s⁻¹; the kon (commonly the second-order rate constant of association) came out at 180000 M⁻¹ s⁻¹. For the same molecule, the EC50 (read off the curve) (in general, the concentration that produces a half-maximal response) with CD40 [1] is approximately 0.6 nM. Moreover, in the assay with CD40 [2], the Kd turned out to be 0.97 nM, the off-rate constant (koff) worked out at 0.00089 s⁻¹ and the kon stood at 920000 M⁻¹ s⁻¹.

B2: 4115 (bispecific antibody)
heavy 1: not shown
heavy 2: B1 heavy 2 with W183Y
light: B1 light
notes: also called single mutant I126S of AC_05293; copies: 2 + 2 + 2
In the case of B2, the “EC50 (read off the curve)” value in the assay with CD40 [3] is approximately 0.2 µg/mL.

B3: AC_05332 (bispecific antibody, human IgG1, kappa, L234A L235A)
heavy: not shown
light: B1 light with Y91T, G92Y, R93G, N94Y, P95L, P96H
chain: EVQLLESGGGLVQPGGSLRLSCAASGFTFSSYAMSWVREAPGKGLEWVSGIGSYGGGTYYADSVKGRFTISRDNSKNTLYLQMNSLRAEDTAVYYCARYVNFGMDYWGQGTLVTVSSASTKGPSVFPLAPSSKSTSGGTAALGCLVKDYFPEPVTVSWNSGALTSGVHTFPAVLQSSGLYSLSSVVEVPSSSLGTQTYICNVNHKPSNTKVDKKVEPKSC
notes: RUBY format; H1 (role heavy) = IgG heavy chain-linker-Fab light chain, L1 (role light) = IgG light chain, H2 (role chain) = Fab heavy chain; also called parental bsAb AC_05332; 5T4xCD40
In the case of B3, the “EC50 (read off the curve)” value in assay [4] was approximately 10 nM; with CD40 expressed on cells [5] it was approximately 5 nM.

B4: 4116 (bispecific antibody)
heavy 1: not shown
heavy 2: B1 heavy 2 with W183Y
light: B1 light
notes: also called single mutant I126T of AC_05293; copies: 2 + 2 + 2
Take B4: the “EC50 (read off the curve)” value with CD40 [3] was approximately 0.1 µg/mL.

B5: AC_05376 (bispecific antibody)
heavy 1: not shown
light: B1 light
heavy 2: EVQLLESGGGLVQPGGSLRLSCAASGFTFSSYAMSWVREAPGKGLEWVSAISGSGGSEYYADSVKGRFTISRDNSKNTLYLQMNSLRAEDTAVYYCARYYGGYYSAWMDYWGQGTLVTVSSASTKGPSVFPLAPSSKSTSGGTAALGCLVKDYFPEPVTVSWNSGALTSGVHTFPAVLQSSGLYSLSSVVEVPSSSLGTQTYICNVNHKPSNTKVDKKVEPKSC
notes: AC_05302 with the mutation in the VH of chain H2; also called T65E mutant of AC_05302; copies: 2 + 2 + 2
Turning to B5, the binding result in the assay with CD40 expressed on cells [6] was “no binding (tested: about 330 nM)”; with CD40 [7] it was “no binding”.

B6: AM_4115-4126 (bispecific antibody)
heavy 1: not shown
heavy 2: B1 heavy 2 with W183I
light: B1 light
notes: AC_05293 backbone; also called double mutant I126S + Y180I; copies: 2 + 2 + 2
As to B6, in the assay with EpCAM, the Kd was determined as 6.9 nM, the koff is 0.0011 s⁻¹ and the kon is 170000 M⁻¹ s⁻¹. Moreover, in the assay with CD40 [1], the “EC50 (read off the curve)” value was approximately 0.5 nM. In the assay with CD40 [2], the dissociation constant Kd came to 1.1 nM, the koff was found to be 0.00085 s⁻¹ and the association rate constant (kon) is 740000 M⁻¹ s⁻¹.

B7: AC_05374 (bispecific antibody, human IgG1, lambda, L234A L235A)
heavy 1: not shown
light: not shown
heavy 2: B5 heavy 2 with E58A
notes: AC_05330 with the mutation in the VH of chain H2; also called T65A mutant of AC_05330; copies: 2 + 2 + 2
With B7, the values for the binding result (in the assay with 5T4; in assay [8]) were “no binding” and “no binding (tested: about 700 nM)”, respectively. In the assay with CD40 expressed on cells [9], the “EC50 (read off the curve)” value is approximately 0.5 nM.

B8: AC_05375 (bispecific antibody, human IgG1, lambda, L234A L235A)
heavy 1: not shown
light: not shown
heavy 2: B5 heavy 2 with E58I
notes: AC_05330 with the mutation in the VH of chain H2; also called T65I mutant of AC_05330; copies: 2 + 2 + 2
Regarding B8, the binding result is “no binding” with 5T4 and “no binding (tested: about 700 nM)” in assay [8]. Also, the “EC50 (read off the curve)” value in the assay with CD40 expressed on cells [9] is approximately 0.4 nM.
